Results: patent US20230272011A1 (AVACTA LIFE SCIENCES, published 2023)

Columns and labels:
cynomolgus serum albumin [1] = target: T1, cynomolgus serum albumin (cynomolgus); test: Octet biolayer interferometry, pH 7.4
T1 construct: also called CSA; cyno serum albumin
Method: (§1) Biotinylated antigen was captured onto SA sensors at 1 μg/ml for 600 seconds in a buffer comprising PBS-T (0.01% Tween 20)+1% casein at either pH 6.0 or 7.4. Association was carried out for 300 seconds and dissociation for 600 seconds, and regeneration was performed using 10 mM glycine pH 1.5 (GE Healthcare) for 3×5 seconds. All steps were carried out at 1000 rpm and 25° C. Purified AFFIMER® polypeptide in two-fold serial dilutions was analyzed at a starting concentration of approximately 10× K_{D value}. Kinetics analyses were carried out using the Octet data analysis software, subtracting the reference sensor (loaded with antigen), aligning the Y-axis to baseline, and using inter-step correction to align association to dissociation. Savitzky-Golay filtering was applied and the data processed. Analysis of the data was carried out with a 1:1 model, global fit, Rₘₐₓ unlinked by sensor.
(§2) AFFIMER® polypeptides were incubated with AcTEV for 1 hour at 30° C. as recommend by the manufacturer (Invitrogen) and removal of cleaved His tag by binding NiNTA resin (Generon) and collecting the cleaved protein flow through. […] Pharmacokinetic profile of IV-injected His tag cleaved AFFIMER® protein compared to C-terminally His-tagged AFFIMER® protein was evaluated.

mouse serum albumin [2] = target: T2, mouse serum albumin (mouse, UniProt P07724 25-608); test: Octet biolayer interferometry, pH 7.4
T2 construct: also called MSA
T2 sequence (P07724 25-608 limits assumed): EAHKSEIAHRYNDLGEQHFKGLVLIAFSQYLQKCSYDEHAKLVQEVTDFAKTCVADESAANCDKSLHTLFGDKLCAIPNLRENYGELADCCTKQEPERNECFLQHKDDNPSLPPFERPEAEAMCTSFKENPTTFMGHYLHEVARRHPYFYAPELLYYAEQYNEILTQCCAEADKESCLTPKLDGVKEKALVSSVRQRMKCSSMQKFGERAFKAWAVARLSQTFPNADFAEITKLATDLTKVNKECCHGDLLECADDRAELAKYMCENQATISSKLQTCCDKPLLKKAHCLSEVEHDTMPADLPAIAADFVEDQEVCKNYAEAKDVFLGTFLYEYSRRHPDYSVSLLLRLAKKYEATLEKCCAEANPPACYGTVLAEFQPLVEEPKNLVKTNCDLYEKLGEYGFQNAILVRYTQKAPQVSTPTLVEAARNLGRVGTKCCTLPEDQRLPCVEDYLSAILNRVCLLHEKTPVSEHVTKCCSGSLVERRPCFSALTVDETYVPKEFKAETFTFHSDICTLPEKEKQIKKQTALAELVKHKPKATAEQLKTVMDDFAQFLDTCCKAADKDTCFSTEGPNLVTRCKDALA
Method: as §1, §2

human serum albumin [3] = target: T3, human serum albumin (human, UniProt P02768 25-609); test: Octet biolayer interferometry, pH 7.4
T3 construct: mature; Bought protein; biotinylated in the Octet and HTRF assays; also called HSA; HuSA
Method: as §1, §2

mouse serum albumin [4] = target: T2, mouse serum albumin; test: binding ELISA on coated albumin, pH 6.0, panel 'MSA Binding at pH 6.0'
Method: (§3) Briefly, ELISA was performed as follow:
(§4) Human (Sigma-Aldrich); Cynomolgus and Mouse (Abcam); Equine (Abcam); Canine (Abcam); Mouse (Sigma-Aldrich); Rabbit (Sigma-Aldrich); Porcine (Sigma-Aldrich);, and Rat (Sigma-Aldrich) serum albumin were coated overnight on 96 well plates (Corning Costar) at 1 μg/ml in PBS at the appropriate pH (pH 6.0 or 7.4). Plates were saturated using 5% Casein (Sigma-Aldrich) buffer in PBS. […] Plates were then washed and AFFIMER® proteins were detected using a biotinylated polyclonal antibody anti-Cystatin (R&D System) for 90 minutes. After washing, streptavidin-HRP (Thermo Fisher Scientific) was added and incubated for 30 minutes.

human serum albumin [5] = target: T3, human serum albumin; test: SPR (Biacore) binding response to HSA at pH 7.4, Affimer at 50 nM
Source text: Final clones were sequence-verified, produced from E. coli, and affinity purified as described in Example 3.

cynomolgus serum albumin [6] = target: T1, cynomolgus serum albumin; test: Octet biolayer interferometry, biotinylated albumin on SA sensors, pH 7.4
How it was run: (§5)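 SA sensor, antigen 1 μg/ml × 600 s; buffer PBS-T 0.01% Tween 20 + 1% casein, pH 6.0 or 7.4; 25° C, 1000 rpm. 1:1 global fit, Rmax unlinked.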

mouse serum albumin [7] = target: T2, mouse serum albumin; test: as above
How it was run: as §5

human serum albumin [8] = target: T3, human serum albumin; test: as above
How it was run: as §5

mouse serum albumin [9] = target: T2, mouse serum albumin; test: binding ELISA on coated MSA, pH 6.0
Method: as §4
(§6) Briefly, PD-1 was coated overnight on the plate at 1 μg/ml in carbonate buffer. Then plates were saturated using 5% Casein/PBS buffer. […] After saturation, the mix was added to the plates and incubated for 90 minutes. Plates were then washed and the detection polyclonal antibody, biotinylated anti-PD-L1, was added. After washing the plates, streptavidin-HRP was added for 30 minutes. After a final wash, development of the reaction was performed using TMB (Pierce) and the plates were read using a plate reader at 450 nm (FIG. 26C).

mouse serum albumin [10] = target: T2, mouse serum albumin; test: binding ELISA on coated MSA, panel title 'Affimer binding to MSA, pH 7' (legend: pH 7.4)
Method: as §4, §6

human serum albumin [11] = target: T3, human serum albumin; test: binding ELISA on coated albumin, pH 6.0, panel 'HSA Binding at pH 6.0'
human serum albumin [12] = target: T3, human serum albumin; test: Biacore, immobilised HSA, pH 7.4
Method: (§7) Affinities for mouse, human, and cynomolgus serum were also measured at pH 7.4 for four (4) AFFIMER® binders using surface plasmon resonance (SPR) (FIG. 5, Table 5). […] A concentration titration of AFFIMER® monomers was run as analyte at a flow rate of 30 μl/min or 60 μl/min. Fc2-1, Fc3-1 and Fc4-1 kinetic data was blank subtracted and fit to a 1:1 Langmuir binding model (BIAcore Evalution software; GE) to calculate KD values.

cynomolgus serum albumin [13] = target: T1, cynomolgus serum albumin; test: SPR (Biacore T200), albumin amine-coupled to CM5, Affimer analyte, pH 7.4
Method: as §7

mouse serum albumin [14] = target: T2, mouse serum albumin; test: as above
Method: as §7

human serum albumin [15] = target: T3, human serum albumin; test: as above
Method: as §7

cynomolgus serum albumin [16] = target: T1, cynomolgus serum albumin; test: binding ELISA on coated albumin, pH 6.0, panel 'CSA Binding at pH 6.0'
Method: as §3, §4

mouse serum albumin [17] = target: T2, mouse serum albumin; test: Octet biolayer interferometry, biotinylated albumin on SA sensors, pH 6.0
How it was run: as §5

T1 sequence (A2V9Z4 25-608): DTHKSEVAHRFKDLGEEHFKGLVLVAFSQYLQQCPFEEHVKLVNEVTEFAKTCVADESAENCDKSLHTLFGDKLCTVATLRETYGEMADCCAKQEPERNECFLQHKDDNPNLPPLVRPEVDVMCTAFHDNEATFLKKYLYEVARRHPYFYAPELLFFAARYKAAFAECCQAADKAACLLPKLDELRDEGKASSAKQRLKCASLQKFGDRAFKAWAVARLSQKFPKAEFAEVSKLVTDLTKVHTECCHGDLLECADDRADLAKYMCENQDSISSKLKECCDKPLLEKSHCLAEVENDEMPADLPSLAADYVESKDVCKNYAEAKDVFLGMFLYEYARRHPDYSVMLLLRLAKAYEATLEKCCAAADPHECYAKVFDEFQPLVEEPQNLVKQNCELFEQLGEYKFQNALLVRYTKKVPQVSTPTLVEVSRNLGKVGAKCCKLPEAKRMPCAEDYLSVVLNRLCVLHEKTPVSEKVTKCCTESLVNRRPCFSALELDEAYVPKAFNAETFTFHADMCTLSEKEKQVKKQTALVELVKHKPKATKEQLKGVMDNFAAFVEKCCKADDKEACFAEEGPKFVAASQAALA

B1: HSA-41 (designed binder)
chain: MIPRGLSEAKPATPEIQEIVDKVKPQLEEKTNETYGKLEAVQYKTQVLANFFQRRWPGSTNYYIKVRAGDNKYMHLKVFNGPWKFRNTDRGADRVLTGYQVDKNKDDELTGFHHHHHH
notes: also called HSA-41 parent; HSA-41 AH parent
- Kd (cynomolgus serum albumin [1]): 209 nM
- Kd (mouse serum albumin [2]): 82 nM
- Kd (human serum albumin [3]): 7.74 nM
- EC50 (read off the curve) (mouse serum albumin [4]): ~0.7 nM
- binding response (human serum albumin [5]): 36.8
- koff (cynomolgus serum albumin [6]): 0.0177 s⁻¹
- kon (cynomolgus serum albumin [6]): 248000 M⁻¹ s⁻¹
- koff (mouse serum albumin [7]): 0.0318 s⁻¹
- kon (mouse serum albumin [7]): 663000 M⁻¹ s⁻¹
- koff (human serum albumin [8]): 0.00198 s⁻¹
- kon (human serum albumin [8]): 379000 M⁻¹ s⁻¹
- EC50 (read off the curve) (mouse serum albumin [9]): ~0.7 nM
- EC50 (read off the curve) (mouse serum albumin [10]): ~6 nM
- EC50 (read off the curve) (human serum albumin [11]): ~0.04 nM
- Kd (human serum albumin [12]): 3.34 nM
- koff (human serum albumin [12]): 0.00563 s⁻¹
- kon (human serum albumin [12]): 1.69e+06 M⁻¹ s⁻¹
- Kd (cynomolgus serum albumin [13]): 112 nM
- koff (cynomolgus serum albumin [13]): 0.0546 s⁻¹
- kon (cynomolgus serum albumin [13]): 488000 M⁻¹ s⁻¹
- Kd (mouse serum albumin [14]): 67.8 nM
- koff (mouse serum albumin [14]): 0.139 s⁻¹
- kon (mouse serum albumin [14]): 2.04e+06 M⁻¹ s⁻¹
- Kd (human serum albumin [15]): 2.59 nM
- koff (human serum albumin [15]): 0.0037 s⁻¹
- kon (human serum albumin [15]): 1.43e+06 M⁻¹ s⁻¹
- EC50 (read off the curve) (cynomolgus serum albumin [16]): ~3 nM
- koff (mouse serum albumin [17]): 0.0447 s⁻¹
- kon (mouse serum albumin [17]): 470000 M⁻¹ s⁻¹
